{
  "source": "paper PMC9958131",
  "about": "(Nature Communications, 2023)",
  "molecules": {"B1": {"name": "Fibrinogen b: β chain of human fibrinogen, RA autoantigen; native or citrullinated by PAD2 or PAD4 (protein)", "chain": "MKRMVSWSFHKLKTMKHLLLLLLCVFLVKSQGVNDNEEGFFSARGHRPLDKKREEAPSLRPAPPPISGGGYRARPAKAAATQKKVERKAPDAGGCLHADPDLGVLCPTGCQLQEALLQQERPIRNSVDELNNNVEAVSQTSSSSFQYMYLLKDLWQKRQKQVKDNENVVNEYSSELEKHQLYIDETVNSNIPTNLRVLRSILENLRSKIQKLESDVSAQMEYCRTPCTVSCNIPVVSGKECEEIIRKGGETSEMYLIQPDSSVKPYRVYCDMNTENGGWTVIQNRQDGSVDFGRKWDPYKQGFGNVATNTDGKNYCGLPGEYWLGNDKISQLTRMGPTELLIEMEDWKGDKVKAHYGGFTVQNEANKYQISVNKYRGTAGNALMDGASQLMGENRTMTIHNGMFFSTYDRDNDGWLTSDPRKQCSKEDGGGWWYNRCHAANPNGRYYWGGQYTWDMAKHGTDDGVVWMNWKGSWYSMRKMSMKIRPFFPQQ"}, "B2": {"name": "P01871 (protein)", "chain": "GSASAPTLFPLVSCENSPSDTSSVAVGCLAQDFLPDSITFSWKYKNNSDISSTRGFPSVLRGGKYAATSQVLLPSKDVMQGTDEHVVCKVQHPNGNKEKNVPLPVIAELPPKVSVFVPPRDGFFGNPRKSKLICQATGFSPRQIQVSWLREGKQVGSGVTTDQVQAEAKESGPTTYKVTSTLTIKESDWLGQSMFTCRVDHRGLTFQQNASSMCVPDQDTAIRVFAIPPSFASIFLTKSTKLTCLVTDLTTYDSVTISWTRQNGEAVKTHTNISESHPNATFSAVGEASICEDDWNSGERFTCTVTHTDLPSPLKQTISRPKGVALHRPDVYLLPPAREQLNLRESATITCLVTGFSPADVFVQWMQRGQPLSPEKYVTSAPMPEPQAPGRYFAHSILTVSEEEWNTGETYTCVVAHEALPNRVTERTVDKSTGKPTLYNVSLVMSDTAGTCY"}, "B3": {"name": "P12035 (protein, UniProt P12035 1-628, looked up)", "chain": "MSRQASKTSGGGSQGFSGRSAVVSGSSRMSCVAHSGGAGGGAYGFRSGAGGFGSRSLYNLGGNKSISISVAAGGSRAGGFGGGRSSCAFAGGYGGGFGSGYGGGFGGGFGGGRGMGGGFGGAGGFGGAGGFGGAGGFGGPGGFGGSGGFGGPGSLGSPGGFGPGGFPGGIQEVTINQSLLQPLNVEIDPQIGQVKAQEREQIKTLNNKFASFIDKVRFLEQQNKVLETKWNLLQQQGTSSISGTNNLEPLFENHINYLRSYLDNILGERGRLDSELKNMEDLVEDFKKKYEDEINKRTAAENEFVTLKKDVDSAYMNKVELQAKVDALIDEIDFLRTLYDAELSQMQSHISDTSVVLSMDNNRSLDLDSIIAEVRAQYEDIAQRSKAEAEALYQTKLGELQTTAGRHGDDLRNTKSEIIELNRMIQRLRAEIEGVKKQNANLQTAIAEAEQHGEMALKDANAKLQELQAALQQAKDDLARLLRDYQELMNVKLALDVEIATYRKLLEGEEYRMSGECPSAVSISVVSSSTTSASAGGYGGGYGGGMGGGLGGGFSAGGGSGSGFGRGGGGGIGGGFGGGSSGFSGGSGFGSISGARYGVSGGGFSSASNRGGSIKFSQSSQSSQRYSR", "modifications": "full-length"}, "B4": {"name": "Q12805 (protein, UniProt Q12805 1-493, looked up)", "chain": "MLKALFLTMLTLALVKSQDTEETITYTQCTDGYEWDPVRQQCKDIDECDIVPDACKGGMKCVNHYGGYLCLPKTAQIIVNNEQPQQETQPAEGTSGATTGVVAASSMATSGVLPGGGFVASAAAVAGPEMQTGRNNFVIRRNPADPQRIPSNPSHRIQCAAGYEQSEHNVCQDIDECTAGTHNCRADQVCINLRGSFACQCPPGYQKRGEQCVDIDECTIPPYCHQRCVNTPGSFYCQCSPGFQLAANNYTCVDINECDASNQCAQQCYNILGSFICQCNQGYELSSDRLNCEDIDECRTSSYLCQYQCVNEPGKFSCMCPQGYQVVRSRTCQDINECETTNECREDEMCWNYHGGFRCYPRNPCQDPYILTPENRCVCPVSNAMCRELPQSIVYKYMSIRSDRSVPSDIFQIQATTIYANTINTFRIKSGNENGEFYLRQTSPVSAMLVLVKSLSGPREHIVDLEMLTVSSIGTFRTSSVLRLTIIVGPFSF", "modifications": "full-length"}, "B5": {"name": "Q7Z3Y7 (protein)", "chain": "MSLQFSNGSRHVCLRSGAGSVRPLNGGAGFAGSSACGGSVAGSEFSCALGGGLGSVPGGSHAGGALGNAACIGFAGSEGGLLSGNEKVTMQNLNDRLASYLDNVRALEEANAELERKIKGWYEKYGPGSCRGLDHDYSRYHLTIEDLKNKIISSTTTNANVILQIDNARLAADDFRLKYENELTLHQNVEADINGLRRVLDELTLCRTDQELQYESLSEEMTYLKKNHEEEMKALQCAAGGNVNVEMNAAPGVDLAVLLNNMRAEYEALAEQNRKDAEAWFNEKSASLQQQISHDSGAATFARSQLTEMRRTLQTLEIQLQSLMATKHSLECSLTETESNYCTQLAQIQAQIGALEEQLHQVRTETEGQKLEYEHLLDVKVHLEKEIETYCRLIDGDGNSCSKSKGFGSGSPGNSSKDLSKTTLVKTVVEELDQRGKVLSSRIHSIEEKTSKMTNGKTEQRVPF"}, "B6": {"name": "Q8N1N4 (protein)", "chain": "MSLSPCRAQRGFSARSACSARSRGRSRGGFSSRGGFSSRSLNSFGGCLEGSRGSTWGSGGRLGVRFGEWSGGPGLSLCPPGGIQEVTINQNLLTPLKIEIDPQFQVVRTQETQEIRTLNNQFASFIDKVRFLEQQNKVLETKWHLLQQQGLSGSQQGLEPVFEACLDQLRKQLEQLQGERGALDAELKACRDQEEEYKSKYEEEAHRRATLENDFVVLKKDVDGVFLSKMELEGKLEALREYLYFLKHLNEEELGQLQTQASDTSVVLSMDNNRYLDFSSIITEVRARYEEIARSSKAEAEALYQTKYQELQVSAQLHGDRMQETKVQISQLHQEIQRLQSQTENLKKQNASLQAAITDAEQRGELALKDAQAKVDELEAALRMAKQNLARLLCEYQELTSTKLSLDVEIATYRRLLEGEECRMSGECTSQVTISSVGGSAVMSGGVGGGLGSTCGLGSGKGSPGSCCTSIVTGGSNIILGSGKDPVLDSCSVSGSSAGS"}, "B7": {"name": "Q02413 (protein, UniProt Q02413 1-1049, looked up)", "chain": "MDWSFFRVVAMLFIFLVVVEVNSEFRIQVRDYNTKNGTIKWHSIRRQKREWIKFAAACREGEDNSKRNPIAKIHSDCAANQQVTYRISGVGIDQPPYGIFVINQKTGEINITSIVDREVTPFFIIYCRALNSMGQDLERPLELRVRVLDINDNPPVFSMATFAGQIEENSNANTLVMILNATDADEPNNLNSKIAFKIIRQEPSDSPMFIINRNTGEIRTMNNFLDREQYGQYALAVRGSDRDGGADGMSAECECNIKILDVNDNIPYMEQSSYTIEIQENTLNSNLLEIRVIDLDEEFSANWMAVIFFISGNEGNWFEIEMNERTNVGILKVVKPLDYEAMQSLQLSIGVRNKAEFHHSIMSQYKLKASAISVTVLNVIEGPVFRPGSKTYVVTGNMGSNDKVGDFVATDLDTGRPSTTVRYVMGNNPADLLAVDSRTGKLTLKNKVTKEQYNMLGGKYQGTILSIDDNLQRTCTGTININIQSFGNDDRTNTEPNTKITTNTGRQESTSSTNYDTSTTSTDSSQVYSSEPGNGAKDLLSDNVHFGPAGIGLLIMGFLVLGLVPFLMICCDCGGAPRSAAGFEPVPECSDGAIHSWAVEGPQPEPRDITTVIPQIPPDNANIIECIDNSGVYTNEYGGREMQDLGGGERMTGFELTEGVKTSGMPEICQEYSGTLRRNSMRECREGGLNMNFMESYFCQKAYAYADEDEGRPSNDCLLIYDIEGVGSPAGSVGCCSFIGEDLDDSFLDTLGPKFKKLADISLGKESYPDLDPSWPPQSTEPVCLPQETEPVVSGHPPISPHFGTTTVISESTYPSGPGVLHPKPILDPLGYGNVTVTESYTTSDTLKPSVHVHDNRPASNVVVTERVVGPISGADLHGMLEMPDLRDGSNVIVTERVIAPSSSLPTSLTIHHPRESSNVVVTERVIQPTSGMIGSLSMHPELANAHNVIVTERVVSGAGVTGISGTTGISGGIGSSGLVGTSMGAGSGALSGAGISGGGIGLSSLGGTASIGHMRSSSDHHFNQTIGSASPSTARSRITKYSTVQYSK", "modifications": "full-length"}, "B8": {"name": "A0A0G2JMB2 (protein)", "chain": "ASPTSPKVFPLSLDSTPQDGNVVVACLVQGFFPQEPLSVTWSESGQNVTARNFPPSQDASGDLYTTSSQLTLPATQCPDGKSVTCHVKHYTNPSQDVTVPCPVPPPPPCCHPRLSLHRPALEDLLLGSEANLTCTLTGLRDASGATFTWTPSSGKSAVQGPPERDLCGCYSVSSVLPGCAQPWNHGETFTCTAAHPELKTPLTANITKSGNTFRPEVHLLPPPSEELALNELVTLTCLARGFSPKDVLVRWLQGSQELPREKYLTWASRQEPSQGTTTFAVTSILRVAAEDWKKGDTFSCMVGHEALPLAFTQKTIDRLAGKPTHVNVSVVMAEVDGTCY"}, "B9": {"name": "B1AHL2 (protein)", "chain": "MERAAPSRRVPLPLLLLGGLALLAAGVDADVLLEACCADGHRMATHQKDCSLPYATESKECRAVGLASLCQDLNGAWAVWKVGRASQAEGTASARAQRRGMVQEQCCHSQLEELHCATGISLANEQDRCATPHGDNASLEATFVKRCCHCCLLGRAAQAQGQSCEYSLMVGYQCGQVFQACCVKSQETGDLDVGGLQETDKIIEVEEEQEDPYLNDRCRGGGPCKQQCRDTGDEVVCSCFVGYQLLSDGVSCEDVNECITGSHSCRLGESCINTVGSFRCQRDSSCGTGYELTEDNSCKDIDECESGIHNCLPDFICQNTLGSFRCRPKLQCKSGFIQDALGNCIDINECLSISAPCPIGHTCINTEGSYTCQKNVPNCGRGYHLNEEGTRCVDVDECAPPAEPCGKGHRCVNSPGSFRCECKTGYYFDGISRMCVDVNECQRYPGRLCGHKCENTLGSYLCSCSVGFRLSVDGRSCEDINECSSSPCSQECANVYGSYQ"}, "B10": {"name": "Q5T749 (protein)", "chain": "MCDQQQIQCRLPLQQCCVKGPSFCSSQSPFAQSQVVVQAPCEMQIVDCPASCPVQVCQVSDQAPCQSQTTQVKCQSKTKQVKGQAQCQSKTTQVKGQAASQSQTSSVQSQAPCQSEVSYVQCEASQPVQTCFVECAPVCYTETCYVECPVQNYVPCPAPQPVQMYRGRPAVCQPQGRFSTQCQYQGSYSSCGPQFQSRATCNNYTPQFQLRPSYSSCFPQYRSRTSFSPCVPQCQTQGSYGSFTEQHRSRSTSRCLPPPRRLQLFPRSCSPPRRFEPCSSSYLPLRPSEGFPNYCTPPRRSEPIYNSRCPRRPISSCSQRRGPKCRIEISSPCCPRQVPPQRCPVEIPPIRRRSQSCGPQPSWGASCPELRPHVEPRPLPSFCPPRRLDQCPESPLQRCPPPAPRPRLRPEPCISLEPRPRPLPRQLSEPCLYPEPLPALRPTPRPVPLPRPGQCEIPEPRPCLQPCEHPEPCPRPEPIPLPAPCPSPEPCRETWRSPSP"}},
  "data": [
    {"tested_on": "PAD2 and PAD4", "experiment": "Citrullination site mapping of fibrinogen and vimentin by trypsin digestion and mass spectrometry (protein-level sheet, one search over native, PAD2-cit and PAD4-cit samples)", "type": "biochemical, human", "settings": "modified residues found per protein; Deamidated [R..] = deamidated (citrullinated) arginine positions; trypsin digest, Sequest HT; not split by sample (native, PAD2-citrullinated, PAD4-citrullinated fibrinogen and vimentin)", "description": "Description: Raw mass spectrometry data for proteolytic mapping of fibrinogen, vimentin, and hnRNP A2/B1 by cathepsins B, S, and H (sheets 1-6); citrullination site mapping of fibrinogen and vimentin by trypsin digestion (sheets 7-8); and the natural antigen processing assay with native, PAD2-citrullinated (PAD2-cit), and PAD4-citrullinated (PAD4-cit) fibrinogen (sheets 9-11).", "values": [
      {"molecule": "B1", "Modifications": "Deamidated [R53; R60; R72; R74; R158; R196; R199; R224; R246; R267; R285; R334; R376; R395; R410; R421; R436; R445; R478]"},
      {"molecule": "B2", "Modifications": "Deamidated [R423]"},
      {"molecule": "B3", "Modifications": "Deamidated [R217]"},
      {"molecule": "B4", "Modifications": "Deamidated [R185; R208; R227; R328; R345]"},
      {"molecule": "B5", "Modifications": "Deamidated [R96]"},
      {"molecule": "B6", "Modifications": "Deamidated [R130]"},
      {"molecule": "B7", "Modifications": "Deamidated [R416; R607]"},
      {"molecule": "B8", "Modifications": "Deamidated [R240; R250; R260]"},
      {"molecule": "B9", "Modifications": "Deamidated [R217; R219; R325; R327; R381; R391; R505; R623; R643; R671]"},
      {"molecule": "B10", "Modifications": "Deamidated [R211; R248; R371; R554]"}
    ]}
  ]
}
